The source of these data is patent US20250059285A1 (ARGENX, published 2025).

For experiment [1], the target named is T1, human Gal10-His (human, UniProt Q05315 2-142, limits assumed).
T1 construct: also called hGal10-His; human Gal10-His tagged; not shown: His tag
T1 sequence: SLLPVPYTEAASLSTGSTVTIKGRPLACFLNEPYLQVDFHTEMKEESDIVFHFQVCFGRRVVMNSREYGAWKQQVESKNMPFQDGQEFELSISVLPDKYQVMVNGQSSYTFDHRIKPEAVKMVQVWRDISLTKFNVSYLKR
Briefly: SPR against T0 reference; sample 4 weeks at 37 C. As to the method: (§1) The functional active concentration of the candidates was then assessed by SPR on a Biacore 3000 instrument (FIG. 4). All samples were evaluated with methods meeting the standard qualification criteria. Aliquots were tested at predefined test concentrations against titration curves from reference samples (T0, −80° C. storage) and in the presence of quality control (QC) samples covering a range of 70-130% relative activity (% RA) towards the reference material.
(§2) comparison/reference ⁽¹⁾ samples correspond to aliquots kept at +37° C. for 4 weeks ⁽²⁾ samples correspond to aliquots kept at +5° C. for 4 weeks prior to nebulization. In brief, samples were nebulized with an Aerogen Solo active vibrating mesh nebulizer that converted a drug solution into an inhalable aerosol. Three different devices for each time-point were used per clone and results are reported by the device (nebulizer) serial number. In case of device fouling, indicated by longer nebulization times […]

Experiment [2] deals with T2, cynomolgus Gal10-His (WGS isoform) (cynomolgus).
T2 construct: also called cynomolgus antigen
Briefly: SPR, summary table, cynomolgus_WGS Gal10.

The target of experiment [3] is T1, human Gal10-His. In words: SPR, overview table of lead Fab candidates.
The target in experiment [4] is T1, human Gal10-His. Briefly: SPR slope against calibrators on captured Gal10-His; sample 2 weeks at 37 C. The procedure: (§3) The binding properties of the seven selected clones following two weeks of temperature stress was analysed using an optimized capture method on a Biacore 3000 instrument. The binding properties of the stressed samples were determined, compared to the calibration point, and expressed as a percentage of Relative Activity (% RA).
(§4) Briefly, a capture method was set-up on a Biacore 3000 instrument. For this purpose, a CM5 chip was coated with a monoclonal anti-His antibody (4000 RU), then a fixed concentration of the human Gal10-His (25 μg/mL) was captured on the anti-His chip before receiving duplicate injections of the calibrators, QC samples and temperature stressed samples of each clone. The slope of each injected sample was then calculated using the BIA evaluation software. Concentrations of the QC samples and temperature stressed samples were back-calculated by interpolating the obtained slopes of these samples to the calibrator curve. Obtained values were within +/−20% of the nominal concentration of the tested samples and are expressed as average relative accuracy (avg % RA) (Table 13).

Experiment [5] has as its target T1, human Gal10-His. Briefly: summary of periplasmic extract screening (BLI or SPR).
Experiment [6] concerns the target T1, human Gal10-His. In words: SPR against T0 reference; sample 4 weeks at 5 C, then nebulized. As to the method: as §1, §2
Experiment [7] deals with T3, recombinant human Charcot-Leyden crystals (crystalline galectin-10) (human, UniProt Q05315 2-142, limits assumed).
T3 sequence: T1 sequence
Briefly: cell-based or functional assay.

Experiment [8] has as its target T1, human Gal10-His. Briefly: SPR Biacore 3000, purified hFab (2 conc.) on Gal10-His captured by anti-His CM5. The procedure: (§5) The binding properties of the selected Fab clones to human Gal10 were analyzed via a capture method established on a Biacore 3000 instrument. Two concentrations of the selected Fab clones were tested on human Gal10-His immobilized on a CM5 chip coated with a monoclonal anti-His. As controls, the clone g7B07 and g7B07_N53A were injected at the beginning and the end of the run. Briefly, a CM5 chip was coated with a monoclonal anti-His antibody (4000 RU), then a fixed concentration of the human Gal10-His (25 μg/mL) was captured on the anti-His chip before receiving two concentrations of the clones in the human Fab backbone.

Experiment [9] concerns the target T1, human Gal10-His. Briefly: competition ELISA on coated Gal10-His; hFab 20 ug/mL, competitor g7B07-hFab-Biot, streptavidin-HRP. As to the method:
An epitope binning analysis of the humanized Fab clones was carried out in comparison with the humanized Fab of g7B07.
For this experiment, a sub-optimal concentration of the biotinylated clone g7B07-humanized Fab was added to the Gal10 coated plate and pre-incubated with the selected clones. The percentage competition with g7B07 was then determined (Table 17). Motavizumab (Mota) in a human Fab backbone was used as a negative control (0% competition). Clone g7B07 was used as the positive control for competition and was therefore set as the 100% competition value. The anti-human specific clone 1D11 (binding to Tyrosine 69 residue) was included in the tested panel as a negative control for competition with 7B07 for Gal10 binding because it was known that clone 1D11 binds to the opposite side of Gal10 (including Tyrosine 69).

Experiment [10] addresses T1, human Gal10-His. Briefly: SPR slope against calibrators on captured Gal10-His; T0 sample. The procedure: as §3, §4
Experiment [11] deals with T1, human Gal10-His. Briefly: SPR Biacore 3000, Fab periplasmic extract on Gal10-His-coated CM5. As to the method:
The binding properties of the Fabs (periplasmic extract) to human Gal10-His were analyzed by SPR with a Biacore 3000 instrument. For this purpose, the diluted periplasmic extract was applied on a CM5 chip coated with human Gal10-His. As a positive control, a 20 nM injection of the purified g7B07 clone in the human Fab backbone was included at the beginning and end of the run.
The binding capacity of the Fab periplasmic extract was analyzed by SPR technology using a Biacore 3000. Briefly, diluted periplasmic extracts were injected on CM5 chip coated with 2500 RU of Gal10-His. The amplitude of the binding (Rmax), the dissociation (off-rate) of each clone, as well as the off-rate fold change compared to the controls (g7B07 and g7B07_N53A) are indicated. Clones g20H09 and g23H09 had similar or better off rate compared to the control g7B07 (Table 10). The randomized part of the CDR2 sequence is underlined (Table 10).

In experiment [12] the target is T1, human Gal10-His. Briefly: SPR Biacore 3000, purified hFab on captured Gal10-His. As to the method: as §5
The target of experiment [13] is T1, human Gal10-His. In words: SPR, summary table, human Gal10.
In experiment [14] the target is T1, human Gal10-His. In words: summary of periplasmic extract screening (BLI or SPR); control.
Experiment [15] deals with T1, human Gal10-His. Briefly: SPR Biacore 3000, hFab on human Gal10-His captured by anti-His CM5. The procedure:
(§6) The binding properties of the selected clones to human and cynomolgus Gal10 was analyzed via a capture method established on a Biacore 3000 instrument.
(§7) For this purpose, two approaches were used. In the first, two concentrations of the selected clones were applied on cynomolgus (WGS isoform) Gal10-His capture on a CM5 chip coated with a monoclonal anti-His antibody. The second approach involved a serial dilution that was applied on human or cynomolgus (WGS isoform) Gal10-His in the same set-up.

Experiment [16] has as its target T2, cynomolgus Gal10-His (WGS isoform). Briefly: SPR Biacore 3000, hFab on captured cynomolgus Gal10-His (WGS); column head prints (M), the text gives nM. The procedure: as §6, §7
In experiment [17] the target is T1, human Gal10-His. Briefly: SPR Biacore 3000, control on Gal10-His-coated CM5. The procedure:
The off-rate of the remaining 25 clones of the ELISA experiment was determined by SPR on a Biacore 3000 instrument. Periplasmic extracts were injected on a CM5 sensor chip coated with 2500 RU Gal10-His.

The target of experiment [18] is T2, cynomolgus Gal10-His (WGS isoform). In words: SPR Biacore 3000, hFab on cynomolgus Gal10-His (WGS) captured by anti-His CM5. As to the method: as §6, §7
Experiment [19] has as its target T1, human Gal10-His. Briefly: BLI Octet RED96, Gal10-His captured on anti-Penta-His tips.
For experiment [20], the target named is T1, human Gal10-His. Briefly: SPR Biacore 3000, hFab on captured human Gal10-His; column head prints (M), the text gives nM. As to the method: as §6, §7
Experiment [21] has as its target T1, human Gal10-His. Briefly: SPR Biacore 3000, purified hFab 20 nM on Gal10-His-coated CM5.

B1: g20H09 (Fab) (Fab, V domains shown)
VH: EVQLLESGGGLVQPGGSLRLSCAASGFTFRSYDMSWVRQAPGKGLEWVSAIKWHRITYYADSVKGRFTISRDNSKNTLYLQMNSLRAEDTAVYYCATTHGIGTLGFGSWGQGTLVTVSS
VL: SYELTQPLSVSVALGQTARITCDGNNIGSKSAQWYQQKPGQAPVLVIYADEYRPEGIPERFSGSNSGNTATLTISRAQAGDEADYYCQVWDGSAAVFGGGTQLTVL
notes: same VH/VL
Turning to B1, the “% relative activity by SPR” value with human Gal10-His [1] worked out at 101%. In experiment [2], this molecule displayed a Kd of 22 nM and a koff of 0.046 s⁻¹. Also, in the experiment with human Gal10-His [3], the dissociation constant (Kd) was determined as 17.7 nM and the koff was determined as 0.047 s⁻¹. For the same molecule, the “% Relative Activity (RA) on Biacore” value in the experiment with human Gal10-His [4] was determined as 86%. In addition, in the experiment with human Gal10-His [5], the “kd, fold compared to g7B07 (BLI or SPR)” value is 0.8 fold. Further, in the experiment with human Gal10-His [6], the “% relative activity by SPR” value is 97%. In addition, in [7], the “crystal dissolution % Relative Activity towards the reference T0 after 2 h, nebulized” value is 66%; the “crystal dissolution % Relative Activity towards the reference T0 after 2 h, stressed” value amounted to 96%; the “recGal10 crystal dissolution EC50 (T2 h), Assay 1, nebulized” value amounted to 395 µg/mL; the “recGal10 crystal dissolution EC50 (T2 h), Assay 1, stressed (4 W at 37 C)” value was determined as 272 µg/mL. For the same molecule, in experiment [7], the “recGal10 crystal dissolution EC50 (T2 h), Assay 1, unstressed (T0)” value amounted to 260 µg/mL. Further, in the experiment with human Gal10-His [8], the Kd stood at 17.5 nM, the “kd-fold drop vs g7B07” value came to 0.3 fold, the off-rate (koff) was found to be 0.015 s⁻¹ and the kon came to 860000 M⁻¹ s⁻¹. Moreover, in the experiment with human Gal10-His [9], the “% Competition against g7B07-Biot” value came out at 93.2% and the “Mean OD value” turned out to be 0.33 OD. In addition, the “% Relative Activity (RA) on Biacore” value in the experiment with human Gal10-His [10] stood at 110%. In the experiment with human Gal10-His [11], the “Fold off-rate compared to g7B07” value turned out to be 1.3 fold and the koff turned out to be 0.0088 s⁻¹. Moreover, the “fold higher dissociation rate than g7B07” value in the experiment with human Gal10-His [12] was determined as 3 fold. In the experiment with human Gal10-His [13], this molecule registered an equilibrium dissociation constant (Kd) of 17.5 nM and a koff of 0.015 s⁻¹.

B2: g7B07 (human Fab) (Fab, V domains shown)
VH: EVQLLESGGGLVQPGGSLRLSCAASGFTFRSYDMSWVRQAPGKGLEWVSAIKNGGGITYYADSVKGRFTISRDNSKNTLYLQMNSLRAEDTAVYYCATTHGIGTLGFGSWGQGTLVTVSS
VL: B1 VL
notes: Human Fab backbone; their format is not certain; also called g7B07-hFab; germlined 7B07
For B2, the “kd, fold compared to g7B07 (BLI or SPR)” value with human Gal10-His [14] is 1 fold. The “Amplitude R0” value with human Gal10-His [15] was 607 RU; in experiment [18] it was 64 RU. Besides, the koff was found to be 0.006 s⁻¹ with human Gal10-His [15]; 0.00218 s⁻¹ with human Gal10-His [17]; 0.0047 s⁻¹ in the experiment with human Gal10-His [8]; 0.13 s⁻¹ in experiment [18]; 0.00754 s⁻¹ with human Gal10-His [19]; 0.0069 s⁻¹ with human Gal10-His [21]. Moreover, the kon in the experiment with human Gal10-His [15] stood at 670000 M⁻¹ s⁻¹; with human Gal10-His [8] it was 420000 M⁻¹ s⁻¹; in experiment [18], 1.9e+06 M⁻¹ s⁻¹. Also, the figures for the Kd (in [16]; with human Gal10-His [8]; with human Gal10-His [20]) were 69.5 nM, 11.1 nM and 9.08 nM, respectively. Besides, the “Fold off-rate compared to g7B07” value in the experiment with human Gal10-His [17] and with human Gal10-His [21] was 1 fold throughout. In addition, the “kd-fold drop vs g7B07” value with human Gal10-His [8] stood at 1 fold. Also, the “kd fold difference to reference” value in the experiment with human Gal10-His [19] is 1 fold.
